Positions count from the first letter of the chain named. Names and notes keep the numbering of the source.
B1: F372L (protein, listed as Avena sativa)
chain: MPPTPATATGAAAAAVTPEHAARSFPRVVRVNPRSDRFPVLSFHHVELWCADAASAAGRFSFALGAPLAARSDLSTGNSAHASLLLRSGALAFLFTAPYAPPPQEAATAAATASIPSFSADAARTFAAAHGLAVRSVGVRVADAAEAFRVSVAGGARPAFAPADLGHGFGLAEVELYGDVVLRFVSYPDETDLPFLPGFERVSSPGAVDYGLTRFDHVVGNVPEMAPVIDYMKGFLGFHEFAEFTAEDVGTTESGLNSVVLANNSEAVLLPLNEPVHGTKRRSQIQTYLEYHGGPGVQHIALASNDVLRTLREMRARTPMGGFEFMAPPQAKYYEGVRRIAGDVLSEEQIKECQELGVLVDRDDQGVLLQILTKPVGDRPTFFLEMIQRIGCMEKDEVGQEYQKGGCGGFGKGNFSELFKSIEDYEKSLEVKQSVVAQKS
modifications: AsHPPD Amido Acid Sequence
B2: F372C (protein, listed as Avena sativa)
chain: B1 chain with L372C
modifications: AsHPPD Amido Acid Sequence
B3: F372S (protein, listed as Avena sativa)
chain: B1 chain with L372S
modifications: AsHPPD Amido Acid Sequence
B4: F372W (protein, listed as Avena sativa)
chain: B1 chain with L372W
modifications: AsHPPD Amido Acid Sequence
B5: F372M (protein, listed as Avena sativa)
chain: B1 chain with L372M
modifications: AsHPPD Amido Acid Sequence
B6: F372T (protein, listed as Avena sativa)
chain: B1 chain with L372T
modifications: AsHPPD Amido Acid Sequence
B7: F372K. (protein, listed as Avena sativa)
chain: B1 chain with L372K
modifications: AsHPPD Amido Acid Sequence
B8: F372E (protein, listed as Avena sativa)
chain: B1 chain with L372E
modifications: AsHPPD Amido Acid Sequence
B9: F372P (protein, listed as Avena sativa)
chain: B1 chain with L372P
modifications: AsHPPD Amido Acid Sequence
B10: TaHPPD7m-F372A-02: Triticum aestivum ecotype 7 HPPD mutant F372A, SEQ ID NO: 216 (protein)
chain: MPPTPTTPAATGAAAAAAVTPEHARPRRMVRFNPRSDRFHTLAFHHVEFWCADAASAAGRFAFALGAPLAARSDLSTGNSVHASQLLRSGNLAFLFTAPYANGCDAATASLPSFSADAARRFSADHGLAVRSIALRVADAAEAFRASVDGGARPAFSPVDLGRGFGFAEVELYGDVVLRFVSHPDGTDVPFLPGFEGVSNPDAVDYGLTRFDHVVGNVPELAPAAAYVAGFTGFHEFAEFTTEDVGTAESGLNSMVLANNSEGVLLPLNEPVHGTKRRSQIQTFLEHHGGPGVQHIAVASSDVLRTLREMRARSAMGGFDFLPPPLPKYYEGVRRIAGDVLSEAQIKECQELGVLVDRDDQGVLLQIATKPVGDRPTCSWR
modifications: TaHPPD7m-F372A Amino Acid Sequence

Test system: Arabidopsis thaliana T1 plants
Experiment: Topramezone tolerance of transgenic Arabidopsis thaliana T1 plants (pesticide damage grade by bleached leaf area, score, resistance evaluation)
Assay type: in vivo
Design: score: scale not given here
Settings: for Resistance Grade / score / Grade 0 / Grade 1 / Grade 2 / Grade 3: HPPD from Avena sativa source; for Grade 0 / Grade 1 / Grade 2 / Grade 3 / Classification and statistics of pesticide damage grade: Grade 0 / Classification and statistics of pesticide damage grade: Grade 1 / Classification and statistics of pesticide damage grade: Grade 2 / Classification and statistics of pesticide damage grade: Grade 3: number of plants; for Resistance evaluation / Scores / Classification and statistics of pesticide damage grade: Grade 0 / Classification and statistics of pesticide damage grade: Grade 1 / Classification and statistics of pesticide damage grade: Grade 2 / Classification and statistics of pesticide damage grade: Grade 3: HPPDs from ecotypes of Triticum aestivum
Procedure, shortened: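 Eighteen days after sowing, wild-type and HPPD-transgenic T1 Arabidopsis receive a topramezone spray at 1×, 2× or 4× field rate (25–100 g ai/ha) or water. Seven days later each plant is graded by its proportion of bleached leaf area.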

| Molecule | Resistance Grade (topramezone 25 g ai/ha (1x)) | score (topramezone 25 g ai/ha (1x)) | Grade 0 (topramezone 25 g ai/ha (1x)) | Grade 1 (topramezone 25 g ai/ha (1x)) | Grade 2 (topramezone 25 g ai/ha (1x)) | Grade 3 (topramezone 25 g ai/ha (1x)) | Resistance Grade (topramezone 50 g ai/ha (2x)) | score (topramezone 50 g ai/ha (2x)) | Grade 0 (topramezone 50 g ai/ha (2x)) | Grade 1 (topramezone 50 g ai/ha (2x)) | Grade 2 (topramezone 50 g ai/ha (2x)) | Grade 3 (topramezone 50 g ai/ha (2x)) | Resistance Grade (topramezone 100 g ai/ha (4x)) | score (topramezone 100 g ai/ha (4x)) | Grade 0 (topramezone 100 g ai/ha (4x)) | Grade 1 (topramezone 100 g ai/ha (4x)) | Grade 2 (topramezone 100 g ai/ha (4x)) | Grade 3 (topramezone 100 g ai/ha (4x)) | other results |
| --- | --- | --- | --- | --- | --- | --- | --- | --- | --- | --- | --- | --- | --- | --- | --- | --- | --- | --- | --- |
| B1 | Highly resistant | 0 | 20 | 0 | 0 | 0 | Highly resistant | 0 | 20 | 0 | 0 | 0 | Moderately resistant | 30 | 6 | 10 | 4 | 0 | – |
| B2 | Highly resistant | 0 | 20 | 0 | 0 | 0 | Highly resistant | 3 | 18 | 2 | 0 | 0 | Moderately resistant | 27 | 8 | 8 | 4 | 0 | – |
| B3 | Highly resistant | 0 | 20 | 0 | 0 | 0 | Highly resistant | 0 | 20 | 0 | 0 | 0 | Highly resistant | 0 | 20 | 0 | 0 | 0 | – |
| B4 | Poorly resistant | 37 | 6 | 6 | 8 | 0 | Non-resistant | 100 | 0 | 0 | 0 | 20 | Non-resistant | 100 | 0 | 0 | 0 | 20 | – |
| B5 | Highly resistant | 0 | 20 | 0 | 0 | 0 | Moderately resistant | 20 | 8 | 12 | 0 | 0 | Poorly resistant | 50 | 2 | 6 | 12 | 0 | – |
| B6 | Highly resistant | 0 | 20 | 0 | 0 | 0 | Highly resistant | 3 | 18 | 2 | 0 | 0 | Moderately resistant | 17 | 10 | 10 | 0 | 0 | – |
| B7 | Moderately resistant | 33 | 0 | 20 | 0 | 0 | Poorly resistant | 47 | 2 | 8 | 10 | 0 | Non-resistant | 90 | 0 | 0 | 6 | 14 | – |
| B8 | Poorly resistant | 60 | 0 | 8 | 8 | 4 | Poorly resistant | 63 | 0 | 6 | 10 | 4 | Non-resistant | 97 | 0 | 0 | 2 | 18 | – |
| B9 | Highly resistant | 0 | 20 | 0 | 0 | 0 | Highly resistant | 0 | 20 | 0 | 0 | 0 | Moderately resistant | 33 | 4 | 12 | 4 | 0 | – |
| B10 | – | – | – | – | – | – | – | – | – | – | – | – | – | – | – | – | – | – | Resistance evaluation (topramezone 25 g ai/ha (1x)): highly resistant (highly resistant plants (scores 0-15)); Scores (topramezone 25 g ai/ha (1x)): 8; Classification and statistics of pesticide damage grade: Grade 0 (topramezone 25 g ai/ha (1x)): 12; Classification and statistics of pesticide damage grade: Grade 1 (topramezone 25 g ai/ha (1x)): 4; Classification and statistics of pesticide damage grade: Grade 2 (topramezone 25 g ai/ha (1x)): 0; Classification and statistics of pesticide damage grade: Grade 3 (topramezone 25 g ai/ha (1x)): 0; Resistance evaluation (topramezone 100 g ai/ha (4x)): moderately resistant (moderately resistant plants (scores 16-33)); Scores (topramezone 100 g ai/ha (4x)): 21; Classification and statistics of pesticide damage grade: Grade 0 (topramezone 100 g ai/ha (4x)): 6; Classification and statistics of pesticide damage grade: Grade 1 (topramezone 100 g ai/ha (4x)): 10; Classification and statistics of pesticide damage grade: Grade 2 (topramezone 100 g ai/ha (4x)): 0; Classification and statistics of pesticide damage grade: Grade 3 (topramezone 100 g ai/ha (4x)): 0 |

From patent publication US20230212587A1, “Mutant Hydroxyphenylpyruvate Dioxygenase Polypeptide, Encoding Gene Thereof and Use Therefor” (Beijing Dabeinong Biotechnology Co., Ltd., priority 2019, published 2023)
